From patent US20150337042A1 (AbbVie / Abbott, published 2015)

Columns and labels:
[1] = target: T1, truncated wild type EGFR 1-525 (EGFR1 (1-525)-SRGPF-Myc-NMHTG-6His) (human, UniProt P00533 25-525); assay: SPR (Biacore T100)
T1 construct: the signal peptide is left out; not shown: Myc tag

[2] = target: T2, EGFRvIII extracellular domain (EGFR (1-29)-G-(298-645)-LESRGPF-Myc-NMHTG-6His) (human, UniProt P00533 298-641); assay: SPR (Biacore T100)
T2 construct: also called recombinant EGFRvIII; not shown: Myc tag

[3] = target: T1, truncated wild type EGFR 1-525 (EGFR1 …); assay: SPR (Biacore), antibody captured via anti-human Fc, antigen injected
Description: (§1) Biacore analysis was performed using a Biacore T100 with a CM5 sensory chip, and test antibodies were captured via anti-human Fc antibodies that were amino coupled to the chip using a standard amine coupling kit according to manufacturer's instructions (GE healthcare). Briefly, a CM5 chip surface was activated with EDC/NHS. Goat anti-human Fc specific polyclonal antibody (Thermo Fisher Scientific Inc., Rockford, Ill.) was diluted to 25 μg/mL in 10 mM sodium acetate (pH 4.5) and injected over the activated surface to achieve immobilization. Unreacted moieties on the biosensor surface were blocked with ethanolamine. The Biacore T100 is a surface plasmon resonance based biosensor for detecting, characterizing and quantifying bimolecular interactions, including the interactions between an antibody and its antigen. Antigen was injected at 80 μL/minute for 3 minutes and dissociation was followed for 15 minutes.

[4] = target: T2, EGFRvIII extracellular domain (EGFR …); assay: as above
Description: as §1

EGFRvIII on U87MG cells = target: T3, EGFRvIII on U87MG cells (human, UniProt P00533 298-1210); assay: competition FACS on U87MG de2-7 cells expressing EGFRvIII; competitor Ab1-FITC at 100 nM
T3 construct: also called de2-7 EGFR

[5] = target: T4, wild type human EGFR on cells (A431, NHEK, SCC-15, H292) (human, UniProt P00533 25-1210); assay: FACS binding to normal human epidermal keratinocytes (NHEK), AlexaFluor 488 secondary antibody
T4 construct: Endogenous receptor of human cell lines and keratinocytes said to express wild type EGFR; also called wild type EGFR; wtEGFR
Description: NHEK cells express wild type EGFR.
Cells were harvested when approximately 80% confluent using trypsin, neutralized and washed once in PBS/1% FBS (FACS buffer) then resuspended at 2.5×10⁶ cells/mL in FACS buffer. 100 μL of cells/well were added to a round bottom 96-well plate. 10 μL of a 10x concentration of Ab (final concentrations are listed in the Figures) was added and plate was incubated at 4° C. for one hour. Wells were washed twice with FACS buffer then resuspended in 50 μL of secondary Ab (AlexaFluor 488) diluted in FACS buffer. The plate was incubated at 4° C. for one hour then washed twice with FACS buffer. Cells were then resuspended in 100 μL of PBS/1% formaldehyde and analyzed on a Becton Dickinson LSRII flow cytometer. Data was analyzed using WinList flow cytometry analysis software.

[6] = target: T4, wild type human EGFR on cells (A431, …); assay: cell-based or functional assay
[7] = target: T1, truncated wild type EGFR 1-525 (EGFR1 …); assay: SPR (summary of FIG. 6)

B1: Antibody G (AbG) (antibody, V domains shown)
VH: EVQLQESGPGLVKPSQTLSLTCTVSGYSISNDFAWNWIRQLPGKGLEWMGYISYKGNTRYQPSLKSRITISRDTSKNQFFLKLNSVTAADTATYYCVTASRGLPYWGQGTLVTVSS
VL: DIQMTQSPSSMSVSVGDRVTITCHSSQDITYNIGWLQQKPGKSFKGLIYHGANLDDGVPSRFSGSGSGTDYTLTISSLQPEDFATYYCVQYDEFPWTFGGGTKLEIK
notes: Full length IgG1
fold increase in affinity relative to Ab1 [1]: 263 fold | fold increase in binding relative to Ab1 [2]: > 47 fold | Kd [3]: 8.6 nM | koff [3]: 5.88e-05 s⁻¹ | kon [3]: 6800 M⁻¹ s⁻¹ | KD ratio (Ab1/variant Ab) [4]: 47.2 | Kd [4]: 0.2 nM | koff [4]: 7.44e-05 s⁻¹ | kon [4]: 374000 M⁻¹ s⁻¹ | IC50 (read off the curve) (EGFRvIII on U87MG cells): ~20 nM | EC50 (read off the curve) [5]: ~40 nM

B2: Antibody P (AbP) (antibody, V domains shown)
VH: EVQLQESGPGLVKPSQTLSLTCTVSGYSISHDFAWNWIRQPPGKGLEWMGYISYSGNTRYQPSLKSRITISRDTSKNQFFLKLNSVTAADTATYYCVTASWGLPWWGQGTLVTVSS
VL: DIQMTQSPSSMSVSVGDRVTITCHSSQDINMNVGWLQQKPGKSFKGLIYHGAILDDGVPSRFSGSGSGTDYTLTISSLQPEDFATYYCVQYAEFPWTFGGGTKLEIK
notes: Full length IgG1
IC50 of inhibition of EGFR signaling in A431 cells (phospho-EGFR ELISA) [6]: > 40 nM | koff [7]: < 0.0001 s⁻¹ | KD ratio (Ab1/variant Ab) [3]: 106 | Kd [3]: 21 nM | koff [3]: 7.67e-05 s⁻¹ | kon [3]: 3580 M⁻¹ s⁻¹ | KD ratio (Ab1/variant Ab) [4]: 8.2 | Kd [4]: 1.2 nM | koff [4]: 0.000135 s⁻¹ | kon [4]: 117000 M⁻¹ s⁻¹ | IC50 (read off the curve) (EGFRvIII on U87MG cells): ~30 nM | EC50 (read off the curve) [5]: ~30 nM

B3: Antibody O (AbO) (antibody, V domains shown)
VH: EVQLQESGPGLVKPSQTLSLTCTVSGYSIGKDFAWNWIRQPPGKGLEWMGYISYNGNTRYQPSLKSRITISRDTSKNQFFLKLNSVTAADTATYYCVTASRGFPYWGQGTLVTVSS
VL: DIQMTQSPSSMSVSVGDRVTITCHSSQDITYNVGWLQQKPGKSFKGLIYHGSNLDHGVPSRFSGSGSGTDYTLTISSLQPEDFATYYCVQYDDFPWTFGGGTKLEIK
notes: Full length IgG1; also called Antibody 0
fold increase in affinity relative to Ab1 [2]: 63 fold | KD ratio (Ab1/variant Ab) [3]: 582 | Kd [3]: 3.9 nM | koff [3]: 2.05e-05 s⁻¹ | kon [3]: 5250 M⁻¹ s⁻¹ | KD ratio (Ab1/variant Ab) [4]: 35.2 | Kd [4]: 0.27 nM | koff [4]: 5.22e-05 s⁻¹ | kon [4]: 196000 M⁻¹ s⁻¹
